Target: T1, CMVpp65_(495-503)/HLA-A*02:01 single-chain trimer (SCT) protein (Homo sapiens HLA-A*02:01 (BC019236) and …, UniProt P06725;P61769;Q8WUX3, stabilised)
T1 construct: source: HEK293F, transfected, purified from culture supernatant (Ni-NTA)
Test: BLI; Abs (mouse IgG2a/κ) immobilised, soluble pMHC SCT as analyte; pH 7.4; Octet QKe; global fit, 1:1 Langmuir model
Details: both partners purified

B1: H9 TCR-like antibody in mouse IgG2a/κ format (antibody, V domains shown)
VH: EVQLVQSGAEVKKPGSSVKVSCKASGGTFSSYAISWVRQAPGQGLEWMGGIIPIFGTANYAQKFQGRVTITADESTSTAYMELSSLRSEDTAVYYCARGDLYYYDSSGYPRYYFDYWGQGTLVTVSS
VL: ETTLTQSPGTLSLSPGERATLSCRASQSVSSSYLAWYQQKPGQAPRLVIYGASSRATGIPDRFSGSGSGTDFTLTISRLEPEDFAVYYCQHYSTSPGFTFGQGTKLEIR
notes: also called parental H9; H9 Ab
Kd: 348 ± 33 nM | koff: 0.0022 s⁻¹ | kon: 6300 M⁻¹ s⁻¹

From article PMC7956451 (International Journal of Molecular Sciences, 2021)
